Substitutions are numbered along the chain they refer to.
Columns and labels:
Settings in all cases: both partners purified
Ufd2p = molecular target: T1, Ufd2p (S. cerevisiae, UniProt P54860 1-961); test: pull-down; GST-Rad23p used to pull down Ufd2p, Ufd2p N mut-1 or Ufd2p NLM; blot with anti-Ufd2; GST as control
T1 construct: Ufd2p, S. cerevisiae, amino acids 1-961; also called wild-type Ufd2p; source: E. coli Rosetta (DE3), purified
T1 sequence (looked up): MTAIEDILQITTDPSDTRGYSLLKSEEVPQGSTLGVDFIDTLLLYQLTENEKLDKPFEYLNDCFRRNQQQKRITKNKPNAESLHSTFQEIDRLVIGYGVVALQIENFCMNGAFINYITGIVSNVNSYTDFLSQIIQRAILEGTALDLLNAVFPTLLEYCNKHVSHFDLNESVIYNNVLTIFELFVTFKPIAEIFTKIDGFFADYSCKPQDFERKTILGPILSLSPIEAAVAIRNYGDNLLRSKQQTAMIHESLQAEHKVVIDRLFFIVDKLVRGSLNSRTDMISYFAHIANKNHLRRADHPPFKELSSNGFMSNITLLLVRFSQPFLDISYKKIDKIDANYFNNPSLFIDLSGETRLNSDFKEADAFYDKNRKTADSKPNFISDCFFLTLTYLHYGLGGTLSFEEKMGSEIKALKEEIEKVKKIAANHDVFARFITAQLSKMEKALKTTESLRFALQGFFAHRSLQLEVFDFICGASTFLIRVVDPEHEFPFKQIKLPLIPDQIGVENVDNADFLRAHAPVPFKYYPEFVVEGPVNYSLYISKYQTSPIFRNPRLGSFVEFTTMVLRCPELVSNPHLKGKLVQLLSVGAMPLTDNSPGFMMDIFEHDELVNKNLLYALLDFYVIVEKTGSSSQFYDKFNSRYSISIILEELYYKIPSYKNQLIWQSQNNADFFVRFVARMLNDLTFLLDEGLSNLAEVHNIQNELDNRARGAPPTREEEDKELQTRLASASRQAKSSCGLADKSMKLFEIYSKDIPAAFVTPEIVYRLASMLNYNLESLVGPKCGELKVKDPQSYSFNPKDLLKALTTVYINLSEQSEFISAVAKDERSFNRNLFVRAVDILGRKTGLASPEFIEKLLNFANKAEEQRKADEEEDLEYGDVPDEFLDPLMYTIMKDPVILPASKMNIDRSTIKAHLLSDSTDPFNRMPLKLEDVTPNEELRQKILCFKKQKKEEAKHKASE

Ufd2p NLM = molecular target: T2, Ufd2p NLM (S. cerevisiae, UniProt P54860 1-961, E51A | K52A | L53A | D54A | K55A | E105A | N106A | M109A | N110A); test: as above
T2 construct: Ufd2p, S. cerevisiae, amino acids 1-961, two N-terminal loops mutated to alanine; prey of the GST-Rad23p pull-down and enzyme of the ubiquitination reactions; also called Ufd2 NLM
T2 sequence (looked up): T1 sequence (looked up) with E51A, K52A, L53A, D54A, K55A, E105A, N106A, M109A, N110A

[1] = molecular target: T3, wild-type Ufd2p (GST pull-down with Rad23p, Supplementary Fig. 14) (S. cerevisiae, UniProt P54860 1-961); test: pull-down; GST pull-down of Ufd2p or Ufd2p NLM with Rad23p (Supplementary Fig. 14); which partner carried GST is not told
T3 construct: Ufd2p, S. cerevisiae; amino acids 1-961; May be the same as m2 if Ufd2p was the GST-tagged bait
T3 sequence (looked up): T1 sequence (looked up)

[2] = molecular target: T4, Ufd2p NLM (GST pull-down with Rad23p, Supplementary Fig. 14) (S. cerevisiae, UniProt P54860 1-961, E51A | K52A | L53A | D54A | K55A | E105A | N106A | M109A | N110A); test: as above
T4 construct: Ufd2p, S. cerevisiae; 1-961 with residues of the two N-terminal loops mutated to alanine; May be the same as m12 if Ufd2p NLM was the GST-tagged bait
T4 sequence (looked up): T1 sequence (looked up) with E51A, K52A, L53A, D54A, K55A, E105A, N106A, M109A, N110A

B1: GST-Rad23p (natural protein, S. cerevisiae, UniProt P32628 1-398, looked up)
chain: MVSLTFKNFKKEKVPLDLEPSNTILETKTKLAQSISCEESQIKLIYSGKVLQDSKTVSECGLKDGDQVVFMVSQKKSTKTKVTEPPIAPESATTPGRENSTEASPSTDASAAPAATAPEGSQPQEEQTATTERTESASTPGFVVGTERNETIERIMEMGYQREEVERALRAAFNNPDRAVEYLLMGIPENLRQPEPQQQTAAAAEQPSTAATTAEQPAEDDLFAQAAQGGNASSGALGTTGGATDAAQGGPPGSIGLTVEDLLSLRQVVSGNPEALAPLLENISARYPQLREHIMANPEVFVSMLLEAVGDNMQDVMEGADDMVEGEDIEVTGEAAAAGLGQGEGEGSFQVDYTPEDDQAISRLCELGFERDLVIQVYFACDKNEEAAANILFSDHAD
notes: Rad23p, ubiquitin receptor for the proteasome, yeast; source: E. coli Rosetta (DE3), purified (Glutathione Sepharose 4B, size exclusion chromatography); not shown: GST, N-terminal, kept
Ufd2p
  binding result: binds
Ufd2p NLM
  binding result: binds

B2: Rad23p (GST pull-down with Ufd2p, Supplementary Fig. 14) (natural protein, UniProt P32628 1-398, looked up)
chain: B1 chain
notes: Rad23p; May be the same as m19 if Rad23p was the GST-tagged bait
[1]
  binding result: binds
[2]
  binding result: binds
